Source: patent US20200270310A1, “MAFG AS A POTENTIAL THERAPEUTIC TARGET TO RESTORE CHEMOSENSITIVITY IN PLATINUM-RESISTANT CANCER CELLS” (FUNDACÓIN PARA LA INVESTIGACIÓN BIOMÉDICA DEL HOSPITAL …, priority 2017, published 2020)

T1: MAFG peptide M4 (IVQLKQRRRTLKNRGYAASCR) (Homo sapiens, UniProt O15525 SEQ:49-69)
T1 chain: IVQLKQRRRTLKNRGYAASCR

B1: apMAFG11F (ssDNA)
DNA: GCGGATGAAGACTGGTGTCGCGAACCGGGTTACTTTTGTCGCGGGTCGTCGGATCTGTGCCCTAAATACGAGCAAC
B2: GCGGATGAAGACTGGTGTCGCGAACCGGGTTACTTTTGTCGCGGGTCGTCGGATCTGTGCCCTAAATACGAGCAAC (nucleic acid)
chain: B1 DNA
modifications: chemistry not given here
notes: DNA aptamer selected against the MAFG protein by SELEX
B3: apMAFG6F (ssDNA)
DNA: GCGGATGAAGACTGGTGTCGATGCATGTGTAGTGCATTTCGAGCCGTTCTATTGGTGTGCCCTAAATACGAGCAAC
B4: apMAFG3F (ssDNA)
DNA: GCGGATGAAGACTGGTGTGCTGTGCTTTGACGACTGTCTAGTGGGTTTTCTTCCCCCGGCCCTAAATACGAGCAAC
B5: GCGGATGAAGACTGGTGTGCTGTGCTTTGACGACTGTCTAGTGGGTTTTCTTCCCCCGGCCCTAAATACGAGCAAC (nucleic acid)
chain: B4 DNA
modifications: chemistry not given here
notes: as for B2

Assays:
[1] = target: BSA (UniProt P02769 P02769:25-607); assay: ELONA; background control; MAFG signal up to four times that of BSA; conditions: label: 5' digoxigenin
[2] = system: human MAFG peptides M1-M10; assay: ELONA of aptamers with 10 MAFG peptides; type: binding; conditions: digoxigenin aptamer 20 nM, 1 μg peptide, absorbance at 405 nm
Protocol: (§1) FIG. 9. Characterization of the interaction of aptamers with MAFG. ELONAS in which the Aptamers bound to digoxigenin (20 nM) were incubated 1 hour at 37° C. with 10 peptides (1 μg) previously attached to the plate overnight. After incubating 1 hour with antidigoxigenin-Peroxidase 1/1000, ABTS was added and at 10 minutes the absorbance at 405 nm was measured.
In order to identify compounds of the invention and starting from the amino acidic sequence of human MAFG (NCBI Reference Sequence: NP_116100.2) of: SEQ ID NO 2: […]); we designed the following 10 peptides (please refer to table below):
Peptide M4, amino acids 49-68 corresponds to the basic MAFG region containing the tyrosine residue (Tyr64), as well as the arginine residue (Arg57) required for binding to the DNA, in addition to a nuclear localization signal.

[3] = target: T2, MAFG-Myc (Homo sapiens, UniProt O15525); assay: Enzyme-linked oligonucleotide assay (ELONA) of aptamers and aptamer populations; type: binding; conditions: for affinity against MAFG: Example 1, individual aptamers; for binding capacity to the target: Example 3, individual sequences from SEL6MAFG; for binding signal relative to BSA protein: individual sequences from SEL6MAFG
T2 construct: Myc (C); DDK (FLAG)
Protocol: FIG. 4. Analysis of the affinity of the aptamers against MAFG. (A) Quantification of aptamer-MAFG complexes by qPCR comparing absence (dot pattern) or presence (filled pattern) of MAFG protein. […] Bars represent the mean±SEM of 2-3 experiments (B) Specificity binding assay of aptamers to MAFG performed by ELONA. MAFG-myc was plated at 50ng/well in 96-well plates followed by incubation with 5′ digoxigenin-labeled aptamers from RND40, SEL3MAFG and SEL6MAFG. The figure represents the mean±SEM of 3 independent experiments. p<0.01. (C) Aptacytochemistry in HEK-293T cells transiently transfected with MAFG-myc. Cells overexpressing MAFG were incubated with 5′ Alexafluor 488-conjugated aptamers from RND40, SEL3MAFG or SEL6MAFG (upper panel) or Myc antibody (lower panel). Confocal microscopy images corresponding to the staining of nuclei with Hoechst (blue), antibodies (red), and aptamers (green) are shown. Arrowhead indicates positive cells. Bar=13 μm. (D) Study of individual aptamers affinity performed by ELONA. Recombinant MAFG was plated at 50 ng/well in 96-well plates followed by incubation with 5′ digoxigenin-labeled individual aptamers apMAGF3F, apMAFG6F and apMAFG11F. The figure represents the mean±SD of 2 independent experiments. (E) Secondary structures of aptamers apMAGF3F, apMAFG6F and apMAFG11F obtained by bioinformatics sequence analysis using the mFold software taking into account the lower free energy (AG).
(ii) Enzyme-linked oligonucleotide assay (ELONA): Aptamers were labeled by PCR using 5′ digoxigenin-labeled F3/5′ digoxigenin-labeled R3 primers (IBA Life Sciences). To assess the enrichment of the selected population and the affinity of the individual aptamers for the target, MAFG-Myc (50 ng) was incubated with the rounds 3, 6 of aptamers or the RND40 library. OD405nm values were determined using a SpectraFluor microplate reader (TECAN, Barcelona, Spain).

[4] = target: T3, MAFG in H23S and H23R cells (Homo sapiens, UniProt O15525); assay: Aptacytochemistry with digoxigenin-labeled individual aptamers; type: cell-based
T3 construct: endogenous in cells; host or cells: H23S and H23R (NSCLC cells, fixed)
Protocol: Following the methodology described above, H23R cells were incubated with 6 pmol of digoxigenin-labeled aptamers (IBA Life Sciences) in selection buffer for 1 hour at room temperature. Subsequently, cells were washed three times with PBS and incubated with anti-digoxigenin conjugated with 5′ AlexaFluor 488 (R&D systems, USA) at 1/500 dilution in blocking buffer for 1 hour at room temperature, as secondary antibody. Finally, the cells were mounted on glass slides using glycerol-buffer containing p-phenylenediamine and 1/750 dilution of Dapi for nuclear staining. Controls were made by omitting the aptamer. Colocalization was assessed by confocal microcopy as described in (iii).

[5] = system: H23R cells; assay: Viability to CDDP after aptamer transfection (resistance index); type: cell-based, human; conditions: aptamer 25 nM, CDDP 72 h
Protocol: FIG. 6. Viability curves combining the best dose of aptamers (25nM) and increasing doses of CDDP. Each experimental group was exposed for 72 h to 6 different CDDP concentrations after aptamers transfection; data were normalized to each untreated control, set to 100% and represent the mean±SD of at least 3 independent experiments performed in quadruplicate at each drug concentration for each cell line analyzed 25nM of aptamers and increasing doses of CDDP in H23S/R cells.
Once identified the best dose of aptamers, cells were transfected with aptamers and treated with increased doses of CDDP to assay viability and ROS production as mentioned above. In parallel, for all the experiments, cells were seeded in 24-well plates for aptamers extraction and confirmation of aptamers transfection.
HEK293 and H23S/R cells were seeded into 96-well plates then transfected with 5, 12.5, 25, 75 and 100 nM of MAFG aptamers or treated with PBS-Mg using Jet Pei PolyPlus transfection reagent (PolyPlus Transfection, USA). The dose of 25 nM aptamer was afterwards used in combination with increased doses of CDDP to assay viability and ROS production as described above. To confirm the aptamer-transfection efficiency cells were seeded in 24-well plates for aptamer isolation and confirmation of aptamer transfection by quantitative analysis. A Myc-DDK-tagged ORF clone of MAFG the negative control pCMV6 were used for in transient transfection (OriGene, USA) in combination with MAFG-aptamers following the same procedure.

[6] = target: T1, MAFG peptide M4 (IVQLKQRRRTLKNRGYAASCR); assay: ELONA; 20 nM aptamer, 1 ug peptide plated, 37 C 1 h; values only in figure; epitope M4 (residues 57-75 of MAFG); conditions: protein: synthetic; tags: synthetic peptide; label: 5' digoxigenin
Protocol: as §1

[7] = target: T4, MAFG in tumor samples of patients with lung cancer (Homo sapiens, UniProt O15525); assay: Aptahistochemistry in NSCLC tumor samples; conditions: 20 tumor samples classified by MAFG mRNA levels
T4 construct: from tissue; host or cells: Formalin-fixed paraffin-embedded NSCLC tumour sections
Protocol: The formalin-fixed and paraffin-embedded tissue sections of patients with lung cancer were baked 15 minutes at 60° C. Deparaffinization was performed by two washes of xylene for 10 minutes each. Tissue sections were rehydrated by a sequential wash in 100%, 90%, 80%, 70% ethanol and distilled water for 5 minutes each. Antigen retrieval was achieved by heat treatment in a pressure cooker for 2 minutes in 10 mM citrate buffer (pH 6.5). Endogenous peroxidase activity of tissues was blocked with 0.3% […]. The primary binding reaction was performed with 10 pmol/ml of digoxigenin-conjugated aptamers overnight at room temperature. The secondary binding reaction was performed with anti-digoxigenin conjugated with POD (Roche; 1/200 dilution in TBS) for 45 minutes. Staining was done using the Immunoperoxidase DAB kit (Master Diagnostica), according to the manufacturer's instructions. The sections were counterstained with hematoxylin.
We then took advantage of the aptacytochemistry to perform an aptamer-based histochemistry in 20 tumor samples from our cohort of patients with known mRNA levels of MAFG. […] To determine the correlation between the aptahistochemistry and the mRNA levels of MAFG, we calculated the percentage of cells with positive staining from the total number of cells computed at four different areas randomly selected for each sample.

Row | Molecule | binding result [1] | interaction of aptamers with the 10 MAFG peptides by ELONA [2] | affinity against MAFG [3] | binding capacity to the target [3] | binding signal relative to BSA protein [3] | number of dots per nucleus, H23R versus H23S [4] | CDDP resistance index after aptamer transfection [5] | binding result [6] | cellular localization of the aptamer [4] | percentage of positive cells in samples with higher MAFG levels [7]
1 | B1 | no binding |  |  |  |  |  |  |  |  | 
2 | B2 |  | recognized peptide M4 | high affinity | high binding capacity to the target in the nanomolar range | four times that of the BSA protein | no differences | no changes |  |  | 
3 | B3 | no binding |  |  |  |  |  |  | binds |  | 
4 | B4 | no binding |  |  |  |  |  |  |  |  | 
5 | B5 |  | recognized peptide M4 | high affinity | high binding capacity to the target in the nanomolar range | four times that of the BSA protein | remarkable differences | no changes |  | also present in the cytoplasm | significant increment in the percentage of positive cells
